Reference: patent US10314925B2, “Thymidine kinase” (priority 2004, dated 2019)
Substitutions are numbered along the chain they refer to.

B1: TkMut4 (nucleic acid)
DNA: ATGGCTTCGTACCCCTGCCATCAACACGCGTCTGCGTTCGACCAGGCTGCGCGTTCTCGCGGCCATAGCAACCGACGTACGGCGTTGCGCCCTCGCCGGCAGCAAGAAGCCACGGAAGTCCGCCTGGAGCAGAAAATGCCCACGCTACTGCGGGTTTATATAGACGGTCCTCACGGGATGGGGAAAACCACCACCACGCAACTGCTGGTGGCCCTGGGTTCGCGCGACGATATCGTCTACGTACCCGAGCCGATGACTTACTGGCAGGTGCTGGGGGCTTCCGAGACAATCGCGAACATCTACACCACACAACACCGCCTCGACCAGGGTGAGATATCGGCCGGGGACGCGGCGGTGGTAATGACAAGCGCCCAGATAACAATGGGCATGCCTTATGCCGTGACCGACGCCGTTCTGGCTCCTCATGTCGGGGGGGAGGCTGGGAGTTCACATGCCCCGCCCCCGGCCCTCACCCTCATCTTCGACCGCCATCCCATCGCCGCCCTCCTGTGCTACCCGGCCGCGCGATACCTTATGGGCAGCATGACCCCCCAAGCCGTGCTGGCGTTCGTGGCCCTCATCCCGCCGACCTTGCCCGGCACAAACATCGTGTTGGGGGCCCTTCCGGAGGACAGACACATCGACCGCCTGGCCAAACGCCAGCGCCCCGGCGAGCGGCTTGACCTGGCTATGCTGGCCGCGATTCGCCGCGTTTACGGGCTGCTTGCCAATACGGTGCGGTATCTGCAGGGCGGCGGGTCGTGGTGGGAGGATTGGGGACAGCTTTCGGGGACGGCCGTGCCGCCCCAGGGTGCCGAGCCCCAGAGCAACGCGGGCCCACGACCCCATATCGGGGACACGTTATTTACCCTGTTTCGGGCCCCCGAGTTGCTGGCCCCCAACGGCGACCTGTATAACGTGTTTGCCTGGGCCTTGGACGTCTTGGCCAAACGCCTCCGTCCCATGCACGTCTTTATCCTGGATTACGACCAATCGCCCGCCGGCTGCCGGGACGCCCTGCTGCAACTTACCTCCGGGATGGTCCAGACCCACGTCACCACCCCAGGCTCCATACCGACGATCTGCGACCTGGCGCGCACGTTTGCCCGGGAGATGGGGGAGGCTAACTGA
modifications: HSV-1 thymidine kinase mutant sequence.
B2: TkMut2 (nucleic acid)
DNA: B1 DNA with T330C, A555G
modifications: HSV-1 thymidine kinase mutant sequence.
B3: TkMut34 (nucleic acid)
DNA: B1 DNA with A541T, G542C
modifications: HSV-1 thymidine kinase mutant sequence.
B4: TkMut234 (nucleic acid)
DNA: B1 DNA with T330C, A541T, G542C
modifications: HSV-1 thymidine kinase mutant sequence.
B5: TkMut24 (nucleic acid)
DNA: B1 DNA with T330C
modifications: HSV-1 thymidine kinase mutant sequence.

How the values were obtained:
[1] = tested on: circulating modified cells; conditions: six patients who developed GvHD and received ganciclovir; cited from earlier work
HSV-tk [2] = experiment: RT-PCR of HSV-tk mutants, RNA from Am12 supernatants; design: species or system HSV-1; conditions: for lower band (spliced form): TKA1/TKB1 primers
From the text: After sequence confirmation of SFCMM-3 HSV-tk mutants (FIGS. 1A-1C), one plasmid clone of each type was used to transiently transfect E86 cells. SFCMM-3 and TK3 plasmids were used as controls. The supernatant was collected from the E86 cultures and used to stably transduce the amphotropic packaging cell line Am12 as described in Materials and Methods section of Example 2. The resulting cell populations were selected for ΔLNGFR expression.
RNA was extracted from the E86 as well as Am12 culture supernatants containing infectious retroviral particles. RT-PCR reactions were carried out on RNA from E86 and Am12 supernatants using TKA1 and TKB1 primers according to the protocol described in Materials and Methods section of Example 2.

HSV-tk [3] = experiment: PCR of genomic DNA from transduced PBLs of three donors; format: cell-based, HSV-1; conditions: TKA1/TKB1 primers
Description: (§1) CEM A301 cells were cultured in RPMI 1640 (Hyclone) supplemented with 10% FBS (Hyclone) and 2 mM glutamine. CEM A301 cells were infected with Am12 culture supernatant containing SFCMM-3 HSV-tk mutants 2 and 234. The day before transduction 5×10^5 cells/ml were cultured. Transduction was then performed by one centrifugation cycle of retroviral vector particles on cells. After the transduction phase, cells were collected and the percentage of actually transduced cells evaluated by FACS analysis. PBLs from three different donors were transduced (as described in Materials and Methods section of Example 2) with Am12 supernatant containing SFCMM-3 HSV-tk mutant 2 as well as SFCMM-3.
(§2) The transduced cells were then sorted for ΔLNGFR expression and expanded a few days in culture.
One pellet for PCR analysis was prepared from the transduced non selected cells as well as from transduced selected cells as described in Materials and Methods section of Example 2. […] Ten microliters of amplified product were analyzed by agarose gel electrophoresis.

HSV-tk [4] = experiment: PCR of genomic DNA from transduced CEM A301 cells; format: cell-based, HSV-1
Description: as §1, §2
One pellet for PCR analysis was prepared from the transduced non selected cells as well as from transduced selected cells as described in Materials and Methods section of Example 2. Genomic DNA was extracted from pellet cells and PCR reaction was carried out with TKA1 and TKB1 or TKY1 and TKY2 or TKZ1 and TKZ2 primers (as indicated in the table below) in a 25 μl reaction mixture containing 100-500 ng of genomic DNA, 1×PCR Buffer with 1.5 mM of MgCl2 (Applied Biosystems), […] of each dNTPs, 300 nM of each primer, 1.25 Units of AmpliTaq Gold (Applied Biosystems). The PCR cycling profile consisted of a first denaturation step for 15 min at 94° C. followed by 40 cycles with denaturation for 30 s at 94° C., annealing for 50 s at 60° C. and extension for 1 min at 72° C., and one final extension step of 10 min at 72° C., […] Ten microliters of amplified product were analyzed by agarose gel electrophoresis.

[5] = CEM A301, TKA1/TKB1 primers, before and after selection

Row | Molecule | average decrease in absolute number of circulating modified cells [1] [%] | spliced product compared to TK3 and SFCMM-3 (ethidium bromide signal) (HSV-tk [2]) | lower band (spliced form) (HSV-tk [2]) | additional bands (HSV-tk [2]) | lower band (spliced form of HSV-tk gene) (HSV-tk [3]) | lower band (spliced form of HSV-tk gene) (HSV-tk [4]; [5]) | lower band (spliced form of HSV-tk gene) (HSV-tk [4]; CEM A301, TKY1/TKY2 and TKZ1/TKZ2 primers)
1 | Nc1nc(O)c2ncn(COC(CO)CO)c2n1 [ganciclovir] | 85 |  |  |  |  |  | 
2 | B1 |  | less represented | lower band is detected |  |  |  | 
3 | B2 |  |  | not detected | two very weak bands of approximately 100 and 200 bp are detected | No lower band is observed | No lower band is observed | No lower band is observed
4 | B3 |  | less represented | lower band is detected |  |  |  | 
5 | B4 |  |  | not detected | two very weak bands of approximately 100 and 200 bp are detected |  | No lower band is observed | 
6 | B5 |  |  | not detected | two very weak bands of approximately 100 and 200 bp are detected |  |  | 
